Publication PMC2193914

Biological target: rat KLRE1-HA (short splice variant), in transiently transfected 293T cells (rat) (UniProt Q80ZC8)
Experiment: SDS-PAGE under nonreducing and reducing conditions with Western blot

stoichiometry N: 2
Substance: rat KLRE1-HA (short splice variant), in transiently transfected 293T cells (from UniProt Q80ZC8 1-226) (receptor)
